For this data set, the system named is Bacillus subtilis DB104 (SP-AmyQ fusion secretion). Nature of the data set: AmyQ secretion efficiency, weighted average sort bin (1 = best secretion, 10 = worst) (bin number (weighted average, 1-10)); higher = lower secretion efficiency. The method, boiled down:
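Occupied alginate beads were sorted by large-particle flow cytometry into 10 equally populated bins according to green/red fluorescence ratio. Each bead (~65 nL) held fluorescein-starch and about 0.3 cells of a B. subtilis DB104 library expressing mature AmyQ fused to designed signal peptides from the amyE locus, and beads were grown about 13 h at room temperature and stained with nile red before sorting. Bin amplicons were Illumina-sequenced, and the secretion score is the read-frequency-weighted average bin number, normalised to beads per bin, excluding low-abundance sequences.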

“And” between values parts separate entries of the source, which are not always exact repeats. Equal entries are not always repeated.

On to MRPVFPYTLSAVLFLSCFFGARQTEASASKR, for which the AmyQ secretion efficiency was 2.08.

In turn, MKRMIVRMTLPLLIVCLAFSKKSASARAASE came in with an AmyQ secretion efficiency of 7.39.

In turn, MKKVLMAFIICLSLILSVLAAPPSGDKAESV registered an AmyQ secretion efficiency of 5.71.

Consider MRHKIITFILAVVVIIIIRKRKKRRGGSEATSK, for which the AmyQ secretion efficiency worked out at 4.98.

In the case of MRKKLKWLSFLLGFIILLFLFTFGFSNNDS, the AmyQ secretion efficiency was 5.5.

With MKKARRLSAAAAVGLFTFGGVQQASAKEL, the AmyQ secretion efficiency is 3.35.

The sequence MKKAFILSAAAAVGLFTFGGVQQFSAKEL registered an AmyQ secretion efficiency of 5.1.

Sequence MAIIIAIIAAVIVIAALITFNVHNASPG showed an AmyQ secretion efficiency of 7.6.

Regarding MFKKHTISLLIIFLLASAVLAKPIECHTV, the AmyQ secretion efficiency turned out to be 5.04.

Consider MTKLKMLSMLTVMIASLFIFSSQCLAVQY, for which the AmyQ secretion efficiency worked out at 2.27.

The sequence MRKKRTSNFNMIVITCVMAASLTLGSLLPAGYATAKED registered an AmyQ secretion efficiency of 3.08.

MLKKIALTLCPAIVGSLLFFTAPRSAHVS came in with an AmyQ secretion efficiency of 5.22.

Turning to MTMLRKIIGWILLLCIIPLFAFTVISSGKEV, the AmyQ secretion efficiency turned out to be 6.13.

MKKVMLATALFLPAGANAADL gave an AmyQ secretion efficiency of 7.34.

For MNKKYFVLIVCIIFTSALFPTFSSVTAAQR, the AmyQ secretion efficiency was 1.45.

As for MKVLLSALLLLLFAFEPSLSGKKL, the AmyQ secretion efficiency stood at 6.45.

Sequence MKRMIVRMTTPLLIVCLAFSSFSASARAASE yielded an AmyQ secretion efficiency of 2.03.

In turn, MNKKYFVLIVCIIFTSALFPTFSSVTLAQG returned an AmyQ secretion efficiency of 2.52.

With MNLRKILLSSALSLGMLVSAAPVLARKR, the AmyQ secretion efficiency is 5.51.

MKKWMITIAMSYTSTKRYFVFISPLKSHKT gave an AmyQ secretion efficiency of 7.55.

As to MLTKRLLTIYIMLLGLIAWFPGAAQAAED, the AmyQ secretion efficiency was determined as 2.99.

On to MKKFLLVSFVLFFALSTGITGVQAAPA, for which the AmyQ secretion efficiency is 2.2.

In the case of MKNMSCKTNLVVSVTLFFSFLTIGPLAHAQNS, the AmyQ secretion efficiency came out at 1.06.

With MNKKYGVLIVCIIFTSALFPTFSSVTAAQG, the AmyQ secretion efficiency is 1.02.

The sequence MRKNRILALFVLSLGLLSFMVTPISAASK returned an AmyQ secretion efficiency of 2.15.

For MSGGGILALFVLSLGLLSFMVTPVSAASK, the AmyQ secretion efficiency amounted to 2.53.

As for MRKKTKNRLISSVLSTVVISSLLFPGAAGASSK, the AmyQ secretion efficiency was 1.59 and 2.27 and 1.9.

The sequence MKKTGIRFLLVSFVLFFALSTGITGVQAAPA registered an AmyQ secretion efficiency of 1.8.

In turn, MKKIWIGMLAAAVLLLITISVTAAMVPKVSLADAA had an AmyQ secretion efficiency of 5.

In the case of MKQGKFSRYYKSLLMLTLVVAPKEKAEAASS, the AmyQ secretion efficiency is 6.74.

Regarding MKKLLAAGIIGLLTVSIASPSFTAEK, the AmyQ secretion efficiency is 6.63.

Take MPYLKRVLLLLVTGLFMSLFAVTATASNQTG: the AmyQ secretion efficiency is 1.29.

The sequence MKKVLMAFIICLSLILSVLAAPPSGAKAAED came in with an AmyQ secretion efficiency of 3.24.

With MKKCRKSIKRFLVSLIIGTFVISVPFMANAQSD, the AmyQ secretion efficiency came to 1.76.

The sequence MKKRITYSLLALLAVVAFAFTDSSKAKKAEA yielded an AmyQ secretion efficiency of 4.79.

As for MKLWMRKTLVVLFTIVTFGLVVPPAALMADKP, the AmyQ secretion efficiency turned out to be 2.83.

MKWMCSICCAAVLLAGGAAQLEAV: the AmyQ secretion efficiency is 3.67.

Take MKKWIYVVLVLSIAGIGGFSGHAASS: the AmyQ secretion efficiency came out at 5.88.

In the case of MKSKWMSGLLLVAVGFSFTQVMVHWGET, the AmyQ secretion efficiency stood at 5.88.

MNLRKILLSSALSLGMLEDDAPVLATSS showed an AmyQ secretion efficiency of 2.76.

Sequence MKKKIVAGLAVSAVVQDDPSAAPAEAKTI registered an AmyQ secretion efficiency of 7.07.

As to MKKWMAGLFLAAAVLLCLMVPQQIQPASS, the AmyQ secretion efficiency was 7.7.

The sequence MTMLRKIIGWILLLCIIPLFAFTVIASRKEV showed an AmyQ secretion efficiency of 6.1.

Sequence MRPVFPLILSAVLFLSCFFGARQTEASISKR yielded an AmyQ secretion efficiency of 3.

For the sequence MTKKAWFLPLVCVLLISGWLAPAASASEQTT, the AmyQ secretion efficiency was 1.79.

The sequence MKKAAAVLLSLGLVFGFSYGAGHVREAKTK registered an AmyQ secretion efficiency of 7.77.

Sequence MKLKSKLLLSCLALSTVFVRKRIANAPTH yielded an AmyQ secretion efficiency of 6.91.

With MKKWRGGSQSGAIAIVLFMYTKGEAKAAGM, the AmyQ secretion efficiency was determined as 6.49.

For MKKQIITATTAVVLGSTLFAGASSAQSI, the AmyQ secretion efficiency is 2.25.

Regarding MKNMSCKLVVSVTLFFSFLTIGPLAHGQNS, the AmyQ secretion efficiency was found to be 2.

With MPYLKRVLLLLVTGLFMSLFAVTATASPQTG, the AmyQ secretion efficiency was determined as 1.86.

With MPYLKRVLLLLVFFLFMFLFSAVTATASAQTG, the AmyQ secretion efficiency stood at 1.35.

The sequence MYKKFVPFAVFLFLFFVSFEMMENCHALDY yielded an AmyQ secretion efficiency of 7.9.

Sequence MTKKAWFLPLVCVLLIEEEEEEAASASAQTT showed an AmyQ secretion efficiency of 6.12.

In turn, MKKTIMSFVAVAALSTTAFVAFTTSTLSGAHASAKEI yielded an AmyQ secretion efficiency of 4.48.

Regarding MKLKSKLRKKCRRRSTVFVATTIANAPTH, the AmyQ secretion efficiency was 7.48.

Turning to MFKKHQRRQRIIFLLASAVLAKPIEAHTV, the AmyQ secretion efficiency is 6.33.

The sequence MKRTWNVCLTALLSVLLVAGSVPFHAEAAPD had an AmyQ secretion efficiency of 2.13.

Sequence MKKIGLLFMLCLAALKKRRFPAQQADAAEA gave an AmyQ secretion efficiency of 7.17.

Sequence MLKRTSFVSLFISSAVLLSILLPSGQAHAQSA showed an AmyQ secretion efficiency of 1.67.

On to MKKKIRRRKAVSAVVGSSMAAAPAEAKTI, for which the AmyQ secretion efficiency was 5.54.

With MKVLLSALLLLLFAFEPSASPKKL, the AmyQ secretion efficiency was 2.66.

On to MMKKLFHSTLIVLLFFSFFGVSPIHAKKQ, for which the AmyQ secretion efficiency was 2.2.

Regarding MKKRFFGPIILAFILFAGTASAIAIPS, the AmyQ secretion efficiency worked out at 5.82.

Sequence MKRTWNRQRKVCLTALLSVLLVAGSVPFHAEAKKP gave an AmyQ secretion efficiency of 2.09.

The sequence MKKRLIAPMLLSAASLAFFAMSGSAQARKK gave an AmyQ secretion efficiency of 5.79.

Sequence MNIKKFAKQATVLTFTTALLAGGATQAFAKKR showed an AmyQ secretion efficiency of 3.43.

Sequence MIAYFGKCRKRRKRMFLGVLFGMQQANHG yielded an AmyQ secretion efficiency of 7.55.

Regarding MKRITINIITMFIAAAVISLTGTAEAAPK, the AmyQ secretion efficiency amounted to 2.12.

Sequence MKRKLLSSLAISALSLGLLVSAPTASFGAES gave an AmyQ secretion efficiency of 3.96.

In turn, MKLWMRKTLVVLFTIVTFGLVSPPAAFMADKP gave an AmyQ secretion efficiency of 2.2.

In turn, MRGKSAVLLSLIMLIAGFLIISFSFQM returned an AmyQ secretion efficiency of 8.29.

With MARRRRRKAAVIVIAALITFNVRNASPG, the AmyQ secretion efficiency came out at 6.9.

Consider MKKRLKRKRVLVPALIMSGITLIEANKK, for which the AmyQ secretion efficiency is 6.77.

Sequence MKRLLVSLRVWMVFLMNWVTPDRKTAARAVY came in with an AmyQ secretion efficiency of 5.96.

In the case of MNFKKTVVSALSISASVSGVASAHEI, the AmyQ secretion efficiency was 5.11.

The sequence MKRKKVLLSALLLLLFAFEPSASGKKL had an AmyQ secretion efficiency of 2.93.

Consider MRKKLKWLSTGTGGTYTQFLFKYQFSNNDS, for which the AmyQ secretion efficiency came to 7.11.

Consider MTVPITMLLSTAAGLLLSLTATSVSAHYV, for which the AmyQ secretion efficiency worked out at 6.06.

MLKKIGYQGCPRSYGSLLFFTAPASAHVS gave an AmyQ secretion efficiency of 7.75.

On to MRSYIKVLTMCFLGLILFVRRKALADNS, for which the AmyQ secretion efficiency turned out to be 6.5.
